Data: patent US20220025060A1 (JIANGSU HENGRUI MEDICINE, published 2022)

Target: T1, His-tagged human CD40 (h-CD40-his) recombinant protein (human, UniProt P25942 21-193)
T1 construct: range 21-193; Commercial reagent from Acrobiosystems; also called human CD40-his; not shown: His tag
Experiment: Biacore SPR
Source text: According to the method described in the instruction available from Human Anti-capture Kit (Cat.# BR-1008-39, GE), human anti-capture antibody was covalently coupled to biosensing chip CM5 of the Biacore instrument (Biacore X100, GE), a certain amount of chimeric or humanized antibodies to be tested was affinity-captured, and then a series of concentration gradients of CD40 antigen (CD40 antigen purchased from Acrobiosystems) flowed through the surface of the chip. Biacore instrument (Biacore X100, GE) was used to detect the reaction signal in real-time, thus to obtain the association and dissociation curves. After each cycle of dissociation was completed, the biochip was washed and regenerated with a regeneration solution provided by the Human Anti-capture Kit. The amino coupling kit used in the test was purchased from GE (Cat. # BR-1000-50, GE), and HBS-EP+10× buffer solution (Cat. # BR-1006-69, GE) was diluted to 1×(pH 7.4) with double distilled water.
The data obtained from the test was fitted against a (1:1) Binding model using BiacoreX100 evaluation software2.0 GE, and the affinity value was obtained, as shown in Table 10 and Table 11.

T1 sequence (P25942 21-193 limits assumed): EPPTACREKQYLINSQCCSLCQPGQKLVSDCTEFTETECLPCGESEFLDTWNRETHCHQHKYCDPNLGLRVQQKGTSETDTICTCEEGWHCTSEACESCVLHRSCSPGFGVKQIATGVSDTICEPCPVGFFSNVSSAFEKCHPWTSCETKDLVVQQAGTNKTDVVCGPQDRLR

B1: humanized antibody hu9E5 (H1c heavy chain, L1a light chain) (antibody, human IgG1, kappa, V domains shown)
VH: QVQLVQSGAEVKKPGASVKVSCKASGYILTTYWITWVRQAPGQGLEWMGDIHPGSGSTKYNEKFKSRVTLTVDTSISTAYMELSRLRSEDTAVYYCARRDYWGQGTTVTVSS
VL: DIVMTQSPLSLPVTPGEPASISCRSSQNIVNSQGNTYLEWYLQKPGQSPQLLIYKVTNRFSGVPDRFSGSGSGTDFTLKISRVEAEDVGVYYCFQASLVPWTFGGGTKVEIKR
notes: also called Hu9E5-25
In the case of B1, the “fold affinity against the Alligator control” value is reported as no less than 10 times and the “fold affinity against the Pfizer Control” value is reported as no less than 4 times.
